Ends that are not written are not given here.
Assays:
[1] = target: T1, Smac/DIABLO binding to BIR3 (Homo sapiens, UniProt P98170); test: In vitro binding of BIR3 to immobilized Smac-GST with or without competing peptide; conditions: 200 μM peptide; Smac-GST immobilized onto glutathione resin
T1 construct: Smac-GST was immobilized onto glutathione resin and then incubated with BIR3

XIAP [2] = target: T2, XIAP (Homo sapiens, UniProt P98170); test: Cytochrome c-dependent caspase-3 activation in 293T S100 extracts containing XIAP (DEVD-AMC); assay type: biochemical; conditions: 25, 100 and 500 μM peptide, XIAP 10 nM, cytochrome c and dATP
T2 construct: made in house; host or cells: in vitro translation (cell-free)
T2 sequence (P98170 whole entry): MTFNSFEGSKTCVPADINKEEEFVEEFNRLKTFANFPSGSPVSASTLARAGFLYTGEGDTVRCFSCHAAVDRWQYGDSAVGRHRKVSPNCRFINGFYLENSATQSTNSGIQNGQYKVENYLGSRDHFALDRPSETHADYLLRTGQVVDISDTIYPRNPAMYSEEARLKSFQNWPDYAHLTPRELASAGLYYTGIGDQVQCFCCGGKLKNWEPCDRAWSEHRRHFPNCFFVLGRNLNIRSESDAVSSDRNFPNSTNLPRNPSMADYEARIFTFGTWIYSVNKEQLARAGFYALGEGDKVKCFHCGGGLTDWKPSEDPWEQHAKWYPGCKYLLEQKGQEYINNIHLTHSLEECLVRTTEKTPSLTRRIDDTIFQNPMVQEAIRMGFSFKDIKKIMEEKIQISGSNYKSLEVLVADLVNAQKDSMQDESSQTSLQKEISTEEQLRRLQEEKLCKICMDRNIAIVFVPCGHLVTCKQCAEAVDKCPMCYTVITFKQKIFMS
Experimental: The activity of caspase-3 in the S100 extracts was measured using the peptide substrate DEVD-AMC.

full length XIAP = target: T3, full length XIAP (Homo sapiens, UniProt P98170); test: In vitro interaction assay of GST fusion proteins with 35S-labeled XIAP; assay type: binding; conditions: C-terminal GST fusion proteins immobilized onto glutathione-affinity resin
T3 construct: full length XIAP or the isolated BIR3 domain of XIAP; made in house; host or cells: in vitro translation (cell-free)
T3 sequence (P98170 whole entry, the tested form may be a part): as the sequence (P98170 whole entry) above
Description: (§1) The C-terminal GST fusion proteins were expressed in bacteria and then immobilized onto glutathione-affinity resin. […] The caspase-9 deletion mutants used in these studies are represented by bar diagrams above the panel in FIG. 10.

[3] = target: T4, isolated BIR3 domain of XIAP (Homo sapiens, UniProt P98170); test: In vitro interaction assay of GST fusion proteins with 35S-labeled BIR3; assay type: binding; conditions: C-terminal GST fusion proteins immobilized onto glutathione-affinity resin
T4 construct: full length XIAP or the isolated BIR3 domain of XIAP; made in house; host or cells: in vitro translation (cell-free)
T4 sequence (P98170 238-358 limits assumed): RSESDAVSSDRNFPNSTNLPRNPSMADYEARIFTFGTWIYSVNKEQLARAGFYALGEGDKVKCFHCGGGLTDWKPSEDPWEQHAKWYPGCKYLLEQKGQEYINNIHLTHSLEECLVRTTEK
Description: as §1

[4] = target: T5, caspase-9-p12 binding to BIR3 (Homo sapiens, UniProt P98170); test: In vitro binding of BIR3 to immobilized p12-GST with or without competing peptide; conditions: 200 μM peptide; p12-GST immobilized onto glutathione resin
T5 construct: made in house; host or cells: bacteria (GST fusion)
T5 sequence (P98170 238-358 limits assumed): as above
Experimental: as §1
The interactions were analyzed as in Example 3.

[5] = target: T6, X-linked inhibitor of apoptosis protein (XIAP), full length (UniProt P98170 1-497); test: Far western with 35S-labeled XIAP
T6 construct: Used as in vitro translated 35S-labeled full length XIAP (pull-down, Far western) or as purified XIAP (holoenzyme experiments); also called full length XIAP; 35S-labeled XIAP
T6 sequence (P98170 whole entry): as the sequence (P98170 whole entry) above
Experimental: The proteins on the nitrocellulose membrane were denatured in a buffer (10 mM sodium phosphate pH 7.4, 150 mM sodium chloride, 5 mM magnesium chloride and 1 mM DTT) containing 6 M guanidine-HCl. These proteins were then renatured by gradual reduction of guanidine-HCl to 0.3 M. The membrane was blocked overnight in the same buffer containing 5% non-fat dry milk. […] The membrane was washed at least three times and then exposed to X-ray film.

[6] = target: T7, E314S mutant BIR3 domain of XIAP (UniProt P98170 238-358, limits assumed); test: GST pull-down of 35S-labeled E314S BIR3
T7 construct: domain: BIR3; 35S-labeled, in vitro translated

XIAP [7] = target: T2, XIAP; test: Far Western blot analysis with 35S-labeled XIAP; assay type: binding
procaspase-3 C163A = test: Procaspase-3 processing and DEVD-AMC cleavage by caspase-9 reconstituted with Apaf-1; assay type: biochemical; conditions: 20 nM each with purified Apaf-1; cytochrome c and dATP
Experimental: Procaspase-3 processing assays were generally performed as described in Srinivasula, S. M. et al. J Biol Chem 275:36152-36157, 2000. In this assay, purified recombinant procaspase-3 C163A was incubated with equal amounts of recombinant WT or triple mutant caspase-9 protein (20 nM) in the presence (+) or absence (−) of recombinant Apaf-1 (20 nM). The reaction mixtures were stimulated with cytochrome c (50 ng/μl) and dATP (1 mM), incubated for 0-60 minutes at 30° C., and then analyzed by SDS-PAGE and western blot analysis (FIG. 3).
Caspase-3 enzymatic assays with the tetrapeptide substrate DEVD-AMC were generally performed as described in Srinivasula, S. M. et al. J Biol Chem 275:36152-36157, 2000. In this caspase-3 enzymatic assay, caspase-9-depleted S100 extracts from Apaf-1-deficient mouse embryonic fibroblasts were incubated with equal amounts of recombinant WT and triple mutant caspase-9 proteins together with Apaf-1, cytochrome c and dATP. The controls used in these assays represent WT and triple mutant caspase-9 proteins incubated as above without cytochrome c and dATP. The reactions were carried out in the presence of 100 μM of DEVD-AMC for 0-120 minutes, and substrate cleavage was measured by luminescence spectrometry using a Perkin Elmer Luminescence spectrometer and represented in arbitrary spectrometric units.

[8] = target: T6, X-linked inhibitor of apoptosis protein …; test: gel filtration on Superose 6 and immunoblot of fractions
Experimental: After incubation, the reaction mixtures were diluted with oligomerization buffer I, and aliquots of each sample (100 μl) were loaded onto a Superose 6 FPLC column.
Samples were then analyzed by SDS-PAGE and autoradiography.

XIAP-BIR3 = target: T8, XIAP-BIR3 (Homo sapiens, UniProt P98170); test: DEVD-AMC cleaving activity in caspase-9-depleted S100 extracts with or without XIAP-BIR3; assay type: biochemical; conditions: 10 nM caspase-9 protein; XIAP-BIR3 20 nM; DEVD-AMC 100 μM; 30 minutes
T8 construct: purified XIAP-BIR3 (20 nM)
T8 sequence (P98170 238-358 limits assumed): as the sequence (P98170 238-358 limits assumed) above
Experimental: To test for enzymatic activity, caspase-9-depleted S100 extracts (20 μg) from Apaf-1-deficient mouse embryonic fibroblasts were incubated with recombinant Apaf-1, cytochrome c, dATP, and equal amounts (10 nM) of WT caspase-9 or the caspase-9 Δlinker mutant protein in the presence (+) or absence (−) of purified XIAP-BIR3 (20 nM). The reactions were carried out in the presence of the peptide substrate DEVD-AMC (100 μM) for 30 minutes, and substrate cleavage was measured by luminescence spectrometry.
To test for enzymatic activity, caspase-9-depleted S100 extracts (20 μg) from Apaf-1-deficient mouse embryonic fibroblasts were incubated with recombinant Apaf-1, cytochrome c, dATP, and equal amounts (10 nM) of WT caspase-9, caspase-9 AT316, 317SG, or AT316, 317GG mutant proteins in the presence (+) or absence (−) of purified XIAP-BIR3 (20 nM). The reactions were carried out in the presence of the peptide substrate DEVD-AMC (100 μM) for 30 minutes, and substrate cleavage was measured by luminescence spectrometry.

T1 sequence (P98170 238-358 limits assumed): as above

Molecule: ATPFQEGLRTFDQLD [linker peptide]
- inhibition of Smac/DIABLO binding to BIR3 [1]: completely inhibited
- promoting caspase-3 activation in XIAP containing extracts (XIAP [2]): as effective in promoting caspase-3 activation as the Smac-N5 or N7 peptides
- interaction with full length XIAP (full length XIAP): able to interact
- interaction with isolated BIR3 domain of XIAP [3]: able to interact

Molecule: AVPIAQK [Smac-N7, AVPIAQK]
- inhibition of binding of caspase-9-p12 to BIR3 [4]: completely inhibited

B1: Caspase-9-p12 C-terminal GST fusion protein (residues 316-416 of SEQ ID NO:1) (other, not shown: a dimerising Fc or GST)
chain: ATPFQEGLRTFDQLDAISSLPTPSDIFVSYSTFPGFVSWRDPKSGSWYVETLDDIFEQWAHSEDLQSLLLRVANAVSVKGIYKQMPGCFNFLRKKLFFKTS
notes: also called p12-GST; GST-p12
- binding result [5]: binds
- binding result [6]: no binding

B2: triple mutant procaspase-9 (E306/D315/D330A) (enzyme)
chain: MDEADRRLLRRCRLRLVEELQVDQLWDALLSRELFRPHMIEDIQRAGSGSRRDQARQLIIDLETRGSQALPLFISCLEDTGQDMLASFLRTNRQAAKLSKPTLENLTPVVLRPEIRKPEVLRPETPRPVDIGSGGFGDVGALESLRGNADLAYILSMEPCGHCLIINNVNFCRESGLRTRTGSNIDCEKLRRRFSSLHFMVEVKGDLTAKKMVLALLELAQQDHGALDCCVVVILSHGCQASHLQFPGAVYGTDGCPVSVEKIVNIFNGTSCPSLGGKPKLFFIQACGGEQKDHGFEVASTSPEDASPGSNPEPAATPFQEGLRTFDQLAAISSLPTPSDIFVSYSTFPGFVSWRDPKSGSWYVETLDDIFEQWAHSEDLQSLLLRVANAVSVKGIYKQMPGCFNFLRKKLFFKTS
notes: Unprocessed protein; also called uncleavable caspase-9; mutant caspase-9
- binding of XIAP by Far Western (XIAP [7]; proteins on nitrocellulose membrane, denatured and renatured): not able to bind
- processing procaspase-3 C163A or inducing DEVD-AMC cleavage (procaspase-3 C163A): as efficient as the fully processed WT caspase-9
- binding result [8]: no binding

B3: Δlinker: caspase-9 with residues 316 to 330 of SEQ ID NO:1 deleted (protein, listed as Homo sapiens)
chain: MDEADRRLLRRCRLRLVEELQVDQLWDALLSRELFRPHMIEDIQRAGSGSRRDQARQLIIDLETRGSQALPLFISCLEDTGQDMLASFLRTNRQAAKLSKPTLENLTPVVLRPEIRKPEVLRPETPRPVDIGSGGFGDVGALESLRGNADLAYILSMEPCGHCLIINNVNFCRESGLRTRTGSNIDCEKLRRRFSSLHFMVEVKGDLTAKKMVLALLELAQQDHGALDCCVVVILSHGCQASHLQFPGAVYGTDGCPVSVEKIVNIFNGTSCPSLGGKPKLFFIQACGGEQKDHGFEVASTSPEDESPGSNPEPDAISSLPTPSDIFVSYSTFPGFVSWRDPKSGSWYVETLDDIFEQWAHSEDLQSLLLRVANAVSVKGIYKQMPGCFNFLRKKLFFKTS
- ability to interact with BIR3 (Far western, FIG. 12B) (XIAP [7]; recombinant caspase-9 mutants): lost significantly the ability to interact
- enzymatic activity (DEVD-AMC cleaving) in presence of XIAP-BIR3 (XIAP-BIR3): did not inhibit enzymatic activity, even in the presence of XIAP-BIR3

— patent publication US20020160975A1, “Conserved XIAP-interaction motif in caspase-9 and Smac/DIABLO for mediating apoptosis” (Thomas Jefferson University, priority 2001, published 2002)
